Source: patent publication US20090062187A1, “Use of Hmgb1 for Wound Healing” (priority 2004, published 2009)
Entries after “also recorded” stand apart in the source; their conditions may differ.

B1: HMGB1 (protein, UniProt P09429 1-215, looked up)
High mobility group protein B1: MGKGDPKKPRGKMSSYAFFVQTCREEHKKKHPDASVNFSEFSKKCSERWKTMSAKEKGKFEDMAKADKARYEREMKTYIPPKGETKKKFKDPNAPKRPPSAFFLFCSEYRPKIKGEHPGLSIGDVAKKLGEMWNNTAADDKQPYEKKAAKLKEKYEKDIAAYRAKGKPDAAKKGVVKAEKSKKKKEEEEDEEDEEDEEEEEDEEDEDEEEDDDDE
notes: purified protein; cytokine released from monocyte-macrophage and necrotic cells, ligand of RAGE

Assays:
normal CD1 mice = assay: Wound closure after full-thickness excised wound in normal CD1 mice; format: in vivo; settings: for wound area reduced by % of the initial size / wound closure / healing rate vs vehicle: normal mice; for wound area reduced by % of the initial size: GL 250 μg/mouse topically every two days; for wound closure / healing rate vs vehicle: GL 250 μg/mouse topically in wound area
diabetic CD1 mice = assay: Wound closure after full-thickness excised wound in streptozotocin-diabetic CD1 mice; format: in vivo
Method: CD1 male mice were obtained from Charles River (Calco, LC, Italy). Mice were rendered diabetic by intraperitoneal injection of streptozotocin (Sigma-Aldrich, St Louis, Mo., USA) at 1.2 mg/30 g weight/day for 5 consecutive days. After 7 days, glycemia was measured and animals with glycemia of 200 to 400 mg/dl were selected for further studies. Mice were anesthetized with intraperitoneal injection of 2.5% Avertin (100% Avertin: 10 g of 2,2,2-tribromoethyl alcohol and 10 ml of tert-amyl alcohol, Sigma). Their dorsum was clipped free of hair and a full thickness wound of 3.5 mm diameter was created using a biopsy punch.
HMGB1 treatment was performed directly in the wound area by injecting 200 ng, 400 ng or 800 ng of purified protein (13) in 20 μl of saline solution at time immediately after wound. Control groups received 20 μl of saline solution in the wound. Glycyrrhyzin, GL (12) was administered topically in the wound area every two days from day 0 to day 14 after wound creation. The concentration used for each administration was 250 μg/mouse in 30 μl of PBS. Control mice received vehicle (PBS).
Animals were photographed at day 0, 3, 5, 6, 7, 10, and 14 after wound. Pictures were digitally processed and areas of wounds were calculated using the KS300 system (Zeiss, Jena GmbH, Germany). For each sample the percentage of wound closure was calculated as the ratio: […]
Where time 0 is the time immediately after the wound. The groups included 6 to 10 animals. Results are presented as mean±standard error. Statistical significance between two measurements was evaluated by unpaired Student's t test.

normal human fibroblasts = assay: Chemotaxis assay (modified Boyden chamber), normal human fibroblasts; format: cell-based; settings: HMGB1 200 ng/ml
Method: (§1) FIG. 9: Effect of HMGB1 on human fibroblasts and keratinocytes migration. Normal (A) and diabetic (B) fibroblasts were obtained from human biopsies. 0.4×10^6 cells/ml were placed in upper compartment of the modified Boyden chambers. HMGB1 (200 ng/ml) or PDGF (15 ng/ml) was added to the lower compartment and incubated for 6 hrs at 37° C. (C) Hacat cells were obtained from ATCC and migration experiments performed as described in (A-B). After staining with Giemsa solution, migrated cells were quantified by counting nuclei in five random microscope fields (40×). The data are expressed as migration index (fold increase in number of migrated cells relative to number of migrated cells in the absence of HMGB1 or PDGF) and are mean±SD of at least 4 independent experiments performed in triplicate. Statistical significance was evaluated by unpaired Student's t test. […]
(§2) The lower compartment of each chamber was filled with 28 μl DMEM with 0.1% BSA. […] Cells on five random fields on the lower face of the filter were counted at 40× magnification and migration index was calculated by dividing the number of migrated cells in the presence of chemoattractants by the cells migrated in response to DMEM with 0.1% BSA.

[1] = test system: diabetic human fibroblasts; assay: Chemotaxis assay (modified Boyden chamber), diabetic human fibroblasts; format: cell-based; settings: HMGB1 200 ng/ml
Method: as §1, §2

[2] = test system: keratinocytes (HaCat cell line); assay: Chemotaxis assay (modified Boyden chamber), keratinocytes; format: cell-based, human; settings: HMGB1 200 ng/ml
Method: FIG. 9: Effect of HMGB1 on human fibroblasts and keratinocytes migration. Normal (A) and diabetic (B) fibroblasts were obtained from human biopsies. 0.4×10^6 cells/ml were placed in upper compartment of the modified Boyden chambers. HMGB1 (200 ng/ml) or PDGF (15 ng/ml) was added to the lower compartment and incubated for 6 hrs at 37° C. (C) Hacat cells were obtained from ATCC and migration experiments performed as described in (A-B). After staining with Giemsa solution, migrated cells were quantified by counting nuclei in five random microscope fields (40×). The data are expressed as migration index (fold increase in number of migrated cells relative to number of migrated cells in the absence of HMGB1 or PDGF) and are mean±SD of at least 4 independent experiments performed in triplicate. Statistical significance was evaluated by unpaired Student's t test.
Hacat human cells were obtained according to (14). […]
as §2

Row | Molecule | wound area reduced by % of the initial size (normal CD1 mice; day 3) | wound area reduced by % of the initial size (normal CD1 mice; day 5) | wound area reduced by % of the initial size (normal CD1 mice; day 6) | wound area reduced by % of the initial size (normal CD1 mice; day 7) | wound closure / healing rate vs vehicle (normal CD1 mice) | wound closure / healing rate vs vehicle (normal CD1 mice; listed as glycyrrhizin) | wound closure vs saline (diabetic CD1 mice; glycyrrhizin 250 μg in the wound area) | wound closure (normal CD1 mice; normal CD1 mice, HMGB1 200 ng in 20 μl injected in wound area immediately after wounding, vs saline) | percentage of wound closure (normal CD1 mice; normal CD1 mice, HMGB1 200 ng, day 3 after wounding) | percent of wound closure vs saline (normal CD1 mice; normal CD1 mice, HMGB1 200 ng, day 5, p<0.03) | percentage of wound closure (diabetic CD1 mice; HMGB1 200 ng, day 3 after wounding) | percentage of wound closure (diabetic CD1 mice; HMGB1 200 ng, day 5) | percentage of wound closure (diabetic CD1 mice; HMGB1 200 ng, day 6) | healing rate vs saline (diabetic CD1 mice; HMGB1 200 ng, p<0.03) | complete wound closure evident by (diabetic CD1 mice; HMGB1 200 ng, same in saline group) | wound closure compared to lower dose (200 ng) (diabetic CD1 mice; HMGB1 400 ng in 20 ul, 3 days after wounding) | wound closure compared to dose of 200 ng (diabetic CD1 mice; HMGB1 800 ng) | chemotactic effect (migration) (normal human fibroblasts) | chemotactic effect (migration) [1] | chemotactic effect (migration) [2]
1 | CC1(C)[C@@H](O[C@H]2O[C@H](C(=O)O)[C@@H](O)[C@H](O)[C@H]2O[C@@H]2O[C@H](C(=O)O)[C@@H](O)[C@H](O)[C@H]2O)CC[C@]2(C)[C@H]3C(=O)C=C4[C@@H]5C[C@@](C)(C(=O)O)CC[C@]5(C)CC[C@@]4(C)[C@]3(C)CC[C@@H]12 [GL, Glycyrrhizin] | 15±3.5% | 38.7±6% | 61.2±5.9% | 73.3±4.5% | slowed down wound closure | significantly lower | No significant differences; also recorded: did not significantly modify wound closure | – | – | – | – | – | – | – | – | – | – | – | – | –
2 | B1 | – | – | – | – | – | – | – | increased wound closure | 30.5±8.5% | significantly higher | 47.5±15.8% | 66.5±13% | 72.2±9% | significantly higher | ≤ 14 days | larger wound closure | same effect | exhibited a chemotactic effect | exhibited a chemotactic effect | exhibited a chemotactic effect
